Drawing on patent publication US20250276050A1, this text covers SEAP reporter enzyme readout, EC50 (HEK-Blue IL-33 cells) and SEAP reporter enzyme readout, EC50 (HEK-Blue IL-4/IL-13 cells) for two molecules.

Experiment [1] deals with heterodimeric IL-1RL1/IL-1RAcP on the surface of HEK-Blue IL-33 cells (human) (UniProt Q01638). The experiment is described as follows: cell-based or functional assay.
Experiment [2] addresses receptor subunits IL4Rα and IL-13Rα1 naturally expressed on HEK-Blue IL-4/IL-13 cells (UniProt P24394). The experiment is described as follows: cell-based or functional assay.

The molecule “His6-cIL-33-CS (amino acids 110-263 of dog IL-33 with the 3 cysteines replaced by serine, start methionine and N-terminal His6-tag, expressed in E. coli) (from UniProt O97863 110-263) (ligand)” gave an SEAP reporter enzyme readout, EC50 (HEK-Blue IL-33 cells) in experiment [1] of 10 ng/mL.

B1: cIL-13-His6 (canine IL-13 with start methionine and C-terminal His6-tag, expressed in E. coli) (ligand)
chain: MSPSPVTPSPTLKELIEELVNITQNQASLCNGSMVWSVNLTAGMYCAALESLINVSDCSAIQRTQRMLKALCSQKPAAGQISSERSRDTKIEVIQLVKNLLTYVRGVYRHGNFRHHHHHH
The molecule B1 displayed an SEAP reporter enzyme readout, EC50 (HEK-Blue IL-4/IL-13 cells) in experiment [2] of 2 ng/mL.
